Measured values published in paper PMC3260422.

Key:
[1] = target: human CSF-1 receptor full-length ectodomain, domains D1-D5 (hCSF-1R_(D1-D5)) (human) (UniProt P07333); experiment: SAXS
[2] = target: human CSF-1 receptor full-length ectodomain, domains D1-D5 (hCSF-1R_(D1-D5)) (human) (UniProt P07333); experiment: ITC
Target sequence in this assay (P07333 20-517): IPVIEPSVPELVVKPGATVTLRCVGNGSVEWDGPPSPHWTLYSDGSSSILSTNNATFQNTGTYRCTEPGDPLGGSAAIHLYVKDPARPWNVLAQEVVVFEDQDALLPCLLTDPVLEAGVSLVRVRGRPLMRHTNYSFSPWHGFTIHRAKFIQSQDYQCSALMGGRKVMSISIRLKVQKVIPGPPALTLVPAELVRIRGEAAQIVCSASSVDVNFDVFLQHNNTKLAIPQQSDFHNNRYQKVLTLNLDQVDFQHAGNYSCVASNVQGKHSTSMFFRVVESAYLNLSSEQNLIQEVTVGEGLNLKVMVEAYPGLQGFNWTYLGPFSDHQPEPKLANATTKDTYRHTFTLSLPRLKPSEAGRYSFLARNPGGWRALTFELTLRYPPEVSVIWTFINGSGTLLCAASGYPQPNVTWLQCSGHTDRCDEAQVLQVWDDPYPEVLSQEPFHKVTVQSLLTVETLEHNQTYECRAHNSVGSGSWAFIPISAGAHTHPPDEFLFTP

[3] = target: mouse CSF-1 receptor full-length ectodomain, domains D1-D5 (mCSF-1R_(D1-D5)) (mouse) (UniProt P09581); experiment: ITC
[4] = target: human CSF-1 receptor full-length ectodomain, domains D1-D5 (hCSF-1R_(D1-D5)) (human) (UniProt P07333); experiment: field-flow fractionation
Target sequence in this assay (P07333 20-517): as above

[5] = target: human Colony Stimulating Factor-1 (hCSF-1), residues 1-149 (human); experiment: field-flow fractionation
[6] = target: mouse CSF-1 receptor, first three extracellular domains (mCSF-1R_(D1-D3)) (mouse) (UniProt P09581); experiment: ITC
mouse CSF-1 receptor, first three extracellular domains (mCSF-1R_(D1-D3)) (mouse), sequence (P09581 20-298): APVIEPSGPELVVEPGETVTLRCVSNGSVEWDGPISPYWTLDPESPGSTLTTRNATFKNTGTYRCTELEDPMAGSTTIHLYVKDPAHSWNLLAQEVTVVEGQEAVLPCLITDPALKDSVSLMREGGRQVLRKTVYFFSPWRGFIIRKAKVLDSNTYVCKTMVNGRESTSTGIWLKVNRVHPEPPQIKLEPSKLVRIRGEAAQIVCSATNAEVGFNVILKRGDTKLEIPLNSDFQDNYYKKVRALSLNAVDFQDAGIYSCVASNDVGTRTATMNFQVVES

mouse CSF-1 receptor full-length ectodomain, domains D1-D5 (mCSF-1R_(D1-D5)) (mouse), sequence (P09581 20-515): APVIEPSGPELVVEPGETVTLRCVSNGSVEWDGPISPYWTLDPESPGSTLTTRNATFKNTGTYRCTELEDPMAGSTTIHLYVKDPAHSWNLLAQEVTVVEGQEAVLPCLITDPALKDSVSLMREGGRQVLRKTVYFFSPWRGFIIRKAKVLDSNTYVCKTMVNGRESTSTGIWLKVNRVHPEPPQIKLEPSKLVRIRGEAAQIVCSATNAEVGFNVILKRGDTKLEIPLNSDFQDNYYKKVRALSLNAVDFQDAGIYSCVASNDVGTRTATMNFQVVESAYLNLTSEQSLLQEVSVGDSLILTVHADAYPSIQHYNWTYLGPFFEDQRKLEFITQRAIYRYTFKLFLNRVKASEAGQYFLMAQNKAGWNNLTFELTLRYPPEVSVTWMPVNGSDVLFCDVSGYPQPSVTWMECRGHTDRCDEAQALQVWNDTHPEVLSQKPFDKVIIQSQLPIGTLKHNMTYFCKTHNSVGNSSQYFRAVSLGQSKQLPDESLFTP

Row | Substance | stoichiometry N [1] | Kd [2] | stoichiometry N (CSF-1 dimer per receptor) [2] | Kd [3] | stoichiometry N (CSF-1 dimer per receptor) [3] | stoichiometry N (CSF-1 dimer per receptor) [4] | stoichiometry N [5] | stoichiometry N (CSF-1 dimer per receptor) [6]
1 | human CSF-1 receptor full-length ectodomain, domains D1-D5 (hCSF-1R_(D1-D5)) (from UniProt P07333 20-517) | 2 |  |  |  |  |  |  | 
2 | human Colony Stimulating Factor-1 (hCSF-1), residues 1-149 (ligand) |  | 13.6 nM | 0.5 | 66.2 nM | 0.5 | 0.5 | 2 | 
3 | mouse Colony Stimulating Factor-1 (mCSF-1), residues 1-149 (ligand) |  | 2800 nM | 0.5 | 21.7 nM | 0.5 |  |  | 0.5
